In patent publication US7968297B2, “Method for identification, isolation and production of antigens to a specific pathogen” (Intercell AG, priority 2001, dated 2011):

What follows are molecules tested on antibodies in human patient sera (assay: Western blot reactivity of selected clones with human sera). Details: 10 to 30 different human patient sera.
Type: binding
Experimental: For Western blot analysis approximately 10 to 20 μg of total cellular protein was separated by 10% SDS-PAGE and blotted onto HybondC membrane (Amersham Pharmacia Biotech, England). The LamB or FhuA fusion proteins were detected using human serum as the primary antibody at a dilution of 1:5000 and anti human IgG antibodies coupled to HRP at a dilution of 1:5000 as secondary antibodies. Detection was performed using the ECL detection kit (Amersham Pharmacia Biotech, England). Alternatively, rabbit anti FhuA or mouse anti LamB antibodies were used as primary antibodies in combination with the respective secondary antibodies coupled to HRP for the detection of the fusion proteins.
Subsequent sequencing of a larger number of randomly picked clones (500 to 800 per screen) led to the identification of the gene and the corresponding peptide or protein sequence that was specifically recognized by the human patient serum used for screening. The frequency with which a specific clone is selected reflects at least in part the abundance and/or affinity of the specific antibodies in the serum used for selection and recognizing the epitope presented by this clone. […] All clones that are presented in Table 2 have been verified by Western blot analysis using whole cellular extracts from single clones to show the indicated reactivity with the pool of human serum used in the screen.
10 to 30 different human patient sera were subsequently used to evaluate the presence of antibodies against the selected immunogenic peptide sequences that have been discovered in the screen according to the present invention. To eliminate possible cross-reactivity with proteins expressed by E. coli, all sera were pre-adsorbed with a total cellular lysate of E. coli DHa cells expressing FhuA protein.
This analysis is summarized in Table 2 and as an example shown in FIG. 4 and is indicative of the validity of the present screen.

Molecule	antibodies against selected epitope in patients
IgG binding protein A [compound 2548]	production of antibodies in a large number of patients
extracellular matrix and plasma binding protein (protein, listed as Staphylococcus aureus) MNSNHAKASVTESVDKKFVVPESGINKIIPAYDEFKNSPKVNVSNLTDNKNFVASEDKLNKIADSSAASKIVDKNFVVPESKLGNIVPEYKEINNRVNVATNNPASQQVDKHFVAKGPEVNRFITQNKVNHHFITTQTHYKKVITSYKSTHVHKHVNHAKDSINKHFIVKPSESPRYTHPSQSLIIKHHFAVPGYHAHKFVTPGHASIKINHFCVVPQINSFKVIPPYGHNSHRMHVPSFQNNTTATHQNAKVNKAYDYKYFYSYKVVKGVKKYFSFSQSNGYKIGKPSLNIKNVNYQYAVPSYSPTHYVPEFKGSLPAPRV	production of antibodies in a large number of patients
IsaA, possibly adhesion/aggregation (protein, listed as Staphylococcus aureus) MKKTIMASSLAVALGVTGYAAGTGHQAHAAEVNVDQAHLVDLAHNHQDQLNAAPIKDGAYDIHFVKDGFQYNFTSNGTTWSWSYEAANGQTAGFSNVAGADYTTSYNQGSNVQSVSYNAQSSNSNVEAVSAPTYHNYSTSTTSSSVRLSNGNTAGATGSSAAQIMAQRTGVSASTWAAIIARESNGQVNAYNPSGASGLFQTMPGWGPTNTVDQQINAAVKAYKAQGLGAWGF	production of antibodies in a large number of patients

Same assay, conditions: clone and its aa region are named in the cell; prefix A/B/C = screen the clone came from

Molecule	Serum reactivity with relevant region (positive/total)
ORF0442 (protein, listed as Staphylococcus epidermidis) MKKIKTISTLVAGLGIAFLGHTTHADAAENNNQQQSTYNYSTTEVSFSNSGNLYTSGQCTWYVYDKTGGKIGSTWGNANSWATAAQAAGFTVNNTPEEGAIMQSSEGAFGHVAFVESVNNDGSITVSEMNYDGGPFAISTRTISASEASSYNYIHLN	C: GSBBM60(65-84): 1/1
ORF2694 (protein, listed as Staphylococcus epidermidis) MKHSSKIIVFVSFLILTIFIGGCGFINKEDSKEAEIKQNFNKTLSMYPTKNLEDFYDKEGYRDEEFDKDDKGTWIINSKMIVEPKGEEMEARGMVLRINRNTRTAKGNFIIKRITENNKGIPDVKDKKYPVKMEHNKIIPTKQIKDKKLKKEIENFKFFVQYGNFKNLKDYKDGEISYNPNVPSYSAQYQLNNYDNNVKQLRKRYDIPTNQAPKLLLKGTGDLKGSSVGYKHLEFTFVENKKENIYFTDSINFNPSRGN	B: SELAB26(27-60): 5/12
ORF2669 (protein, listed as Staphylococcus epidermidis) MHYLKKVTIYISLLILVSGCGDSKETEIKQNFNKMLNVYPTKNLEDFYDKEGYRDEEFDKDDKGTWIIRSEMTKQPKGKIMTSKGMVLHMNRNTRSTTGYYVIRKISEDNKSEIDDEEKKYPIKMVNNKIIPTQKINDNKLKNEIENFKFFVQYGSFKNSDDYKEGDIEYNPNAPNYSAQYHLSNDDYNIKQLRKRYDIKTKKTPRLLMRGAGDPKGSSVGYKNLEFTFVKNNEENIYFTDSINFNPSKGKSL	B: SELAE27(22-51): 5/12
IsaA, possibly adhesion/aggregation (protein, listed as Staphylococcus aureus) MKKTIMASSLAVALGVTGYAAGTGHQAHAAEVNVDQAHLVDLAHNHQDQLNAAPIKDGAYDIHFVKDGFQYNFTSNGTTWSWSYEAANGQTAGFSNVAGADYTTSYNQGSNVQSVSYNAQSSNSNVEAVSAPTYHNYSTSTTSSSVRLSNGNTAGATGSSAAQIMAQRTGVSASTWAAIIARESNGQVNAYNPSGASGLFQTMPGWGPTNTVDQQINAAVKAYKAQGLGAWGF	B: SELAA47(238-259): 12/12
ORF2260 (protein, listed as Staphylococcus epidermidis) MARIATKLGYPESNSFVTNTVIEFVLHNEAYPRLYRIKTRDTNLIKISQANEISRQITNGTMTLEEAKYQLEEIYVAKRDSSLPFKGIAAAIIATSFLYLQGGRLVDIITAVLAGTIGYLVVEILDRKLHAQFIPEFIGSLVIGIISVIGHAFVPSGDLATIIIAAVMPIVPGVLITNAIQDLFGGHMLMFTTKSLEALVTAFGIGAGVSSILILV	B: SELAG77(123-142): 12/12
ORF0355 (protein, listed as Staphylococcus epidermidis) MSKHSATLVIMFLITLLPIFQYQASAHATLEKSTPQQQGVIKDKPEAIKLEFNEPVNTKYSSVTLFDDKGKKIKDLKPITTGWSQTVVFSSEQIVNGTNTIEWHTVSADGHEVGDTFEFSVGKVRLKM	C: GSBBL39(63-86): 1/1
ORF2673 (protein, listed as Staphylococcus epidermidis) MRYLKKVTIYISLLILVSGCGNGKETEIKQNFNKMLDMYPTKNLEDFYDKEGYRDEEFDKKDKGTWIVGSTMTIEPKGKYMESRGMFLYINRNTRTTKGYYYVRKTTDDSKGRLKDDEKRYPVKMEHNKIIPTKPIPNDKLKKEIENFKFFVQYGDFKNLKDYKDGDISYNPNVPSYSAKYQLSNNDYNVKQLRKRYDIPTNQAPKLLLKGDGDLKGSSIGSKSLEFTFIENKEENIFFSDGVQFTPSEDSES	B: SELAE25(23-54): 2/12
ORF2671 (protein, listed as Staphylococcus epidermidis) VKHSKKLLLCISFLLITFFIGGCGFMNKDDGKETEIKQNFNKMLNVYPTKNLENFYDKEGYRDEEFDKDDKGTWIVHSKMVIEPKGKNMESRGMVLFINRNTRTSKGYFIVNEIEKDRKGRPINNKKKYPVKMKNNKIIPTKPISNDKLKKEIENFKFFVQYGNFKDIKNYKDGDISYNPNVPSYSAKYQLSNNEYNVQQLRKRYDIPTKKVPKLLLKGDGDLKGSSVGSKNLEFTFIENKEENIYFTDSVLFSPSEDNES	B: SELAD21(36-61): 5/12
ORF2098 (protein, listed as Staphylococcus epidermidis) MIKKNKEELNDMEYLVTQENGTEPPFQNEYWNHFEKGIYVDKLSGKPLFTSEDKFESNCGWPSFSKALNDDEIVELVDKSFGMIRTEVRSEKANSHLGHVFNDGPKEKGGLRYCINSAAIQFIPYDKLEELGYGDLIKHFKK	A: SEFAQ50(15-57): 5/12
ORF0979 (protein, listed as Staphylococcus epidermidis) MMIIVMLILSYLIGAFPSGLIIGKLFFKKDIRQYGSGNTGATNSFRVLGRPAGFIVTFLDIFKGFITVFFPLWFPVHADGVISTFFTNGLIVGLFAILGHVYPIYLKFNGGKAVATSAGVVLGVNPILLLILAIIFFSVLKIFKYVSLSSIIAAISCVIGSIIIHDYILLAVSGIVSIILIIRHKSNIVRIFKGEEPKIKWM	B: SELAH01(26-49): 5/12

Same assay, conditions: positive sera / total sera tested; clone and its aa region named in the cell

Molecule	Serum reactivity with relevant region (positive/total)
ARF0280 (VYMLSSTRFIVRWYNNCNKSTNIINERSSGSIKSDGNSSCFFK)	SALAM59(25-43): 1/1
ORF2931 (protein, listed as Staphylococcus aureus) MKLKSLAVLSMSAVVLTACGNDTPKDETKSTESNTNQDTNTTKDVIALKDVKTSPEDAVKKAEETYKGQKLKGISFENSNGEWAYKVTQQKSGEESEVLVADKNKKVINKKTEKEDTMNENDNFKYSDAIDYKKAIKEGQKEFDGDIKEWSLEKDDGKLVYNIDLKKGNKKQEVTVDAKNGKVLKSEQDH	E: GSBZA13(22-37): 7/41
ORF2958 (protein, listed as Staphylococcus aureus) MKMKNIAKISLLLGILATGVNTTTEKPVHAEKKPIVISENSKKLKAYYNQPSIEYKNVTGYISFIQPSIKFMNIIDGNSVNNIALIGKDKQHYHTGVHRNLNIFYVNEDKRFEGAKYSIGGITSANDKAVDLIAEARVIKEDHTGEYDYDFFPFKIDKEAMSLKEIDFKLRKYLIDNYGLYGEMSTGKITVKKKYYGKYTFELDKKLQEDRMSDVINVTDIDRIEIKVIKA	F: SALBB59(154-168): 4/41
CRF0145 (protein) FKYKKNRKIPSIMMQQIKITILYSYLTINKWEYLLNITPNKTVLPATGQKELILAVFTMFKVSKSFSLILTYFFGISQLIIGKKSANHVLTKSIIKYSSLYLIILYLGFLLIFSVSQSNVSTSFQLVLY	SALAZ40(81-90): 2/12
CRF1763 (protein) FEATKVPHNGSTLINNALNFNEALICLSLKVNIALIIPKIATIRGIVMLGYCGICKKAPRPAITPHTNAIYRNCFKSFTPKLLLHYYT	C: GSBYI30(1-22): 1/1
CRF0497 (protein) LLHHLVLLHLSQLILAQLPYQELTLVRKMDSHVLGLYPLIVYVQFQMFPYHRYQNQSIHRFDLQYFH	GSBXF31(19-34): 1/7
CRF2155 (protein) ILSAALSTPALLNNTSILPNCSFMSDTKSTTCCSLALSTLYAFALSPLLLILSTVSDTASAMSTANTYAPY	SALAQ54(54-66): 1/12
ORF1848 (protein, listed as Staphylococcus aureus) MKLKSFVTATLALGLLSTVGAALPSHEASADSNNGYKEMTVDGYHTVPYTISVDGITALHRTYFIFPENKNVLYQEIDSKVKNELASQRGVTTEKINNAQTATYTLTLNDGNKKVVNLKKNDDAKNSIDPSTIKQIQIVVK	E: GSBZB15(75-90): 6/41
CRF2729 (protein) GMKMISISDEINCLICCNCVGLCSFISSAKYIFWISISSNTVAKTSIKRGKFLVTARSIRR	SALAQ25(40-56): 1/1
CRF2349 (protein) SIIVNTVSKCIKVRLVGISIATTFLNVACGFSKIRRANFSIACADVRSETPIAKTSLDKTSSSPPSILNGQSRSNQIGIFASLNLG	GSBXC92(52-67): 2/11
